System: peptide library, one residue held at a place counted from the S/T acceptor
Assay: relative phosphorylation of the sub-library (ratio to the mean residue at this position); higher = residue favoured
Conditions: human
Procedure, shortened: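 Purified recombinant kinases were reacted in 384-well plates with biotinylated degenerate peptide sub-libraries, each having one residue fixed at one position around a central Ser/Thr. The reaction mix contained 50 μM peptide plus 50 μM ATP spiked with γ-32P-ATP and ran for 90 min under kinase-specific conditions. Relative sub-library phosphorylation, taken from densitometry of phosphorimaged streptavidin membrane spots, is a ratio to the mean residue at that position.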

Sequence of MAPK12, construct: Full length (P53778 whole entry, looked up): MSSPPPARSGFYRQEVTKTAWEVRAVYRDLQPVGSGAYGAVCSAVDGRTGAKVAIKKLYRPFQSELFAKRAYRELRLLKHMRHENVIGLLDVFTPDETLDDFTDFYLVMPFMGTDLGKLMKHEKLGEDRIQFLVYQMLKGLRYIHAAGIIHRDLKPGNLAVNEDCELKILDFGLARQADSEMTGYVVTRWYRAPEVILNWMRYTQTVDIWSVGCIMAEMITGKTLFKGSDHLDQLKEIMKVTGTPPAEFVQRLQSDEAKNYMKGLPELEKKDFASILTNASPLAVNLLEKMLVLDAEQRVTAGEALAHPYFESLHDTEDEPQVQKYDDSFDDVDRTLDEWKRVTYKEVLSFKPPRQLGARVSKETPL

MAPK12, construct: Full length (from UniProt P53778)
relative phosphorylation
Conditions	at +1	at +2	at +3	at +4	at -1	at -2	at -3	at -4	at -5
A fixed	0.289	1.22	1.13	1.01	1.21	1.66	1.13	1.19	1.07
D fixed	0.0904	0.475	0.864	0.879	0.738	0.789	1.23	1.28	1.22
E fixed	0.0906	0.374	0.973	0.872	0.905	0.822	1.41	1.21	1.14
F fixed	0.153	0.77	0.897	1.1	0.582	0.444	0.622	0.672	0.818
G fixed	0.644	1.1	1.36	1.23	1.36	1.14	1.98	1.44	1.34
H fixed	0.183	1.38	1.26	1	1.17	0.584	1.23	1.04	1.16
I fixed	0.187	1.31	0.697	0.881	0.542	0.946	0.712	0.774	0.715
K fixed	0.152	1.08	0.962	0.931	1.04	0.433	0.761	1.12	1.28
L fixed	0.198	0.947	0.845	0.994	1.03	1.31	0.643	0.855	0.733
M fixed	0.17	0.878	0.851	1.15	1.27	1.16	0.838	0.949	0.83
N fixed	0.108	0.806	0.852	0.821	0.878	0.819	1.01	1.07	1.03
P fixed	13.8	0.539	1.33	1.11	1.37	3.27	1.33	1.11	1.27
Q fixed	0.141	0.914	0.934	0.921	1.13	0.742	0.918	0.916	0.937
R fixed	0.174	1.84	1.28	0.908	1.48	0.664	1.05	1.03	1.06
V fixed	0.302	1.36	0.855	0.89	0.611	1.31	0.649	0.654	0.823
W fixed	0.181	0.851	0.894	1.18	0.674	0.457	0.674	0.869	0.725
Y fixed	0.159	1.15	1.02	1.12	1.01	0.446	0.802	0.827	0.859
pThr fixed	0.509	1.04	0.824	0.669	0.457	0.823	1.27	1.15	1.42
pTyr fixed	0.52	0.799	0.925	0.686	0.878	1.11	1.56	1.28	1.44

MKNK2, construct: Full length (from UniProt Q9HBH9)
relative phosphorylation
Conditions	at +1	at +2	at +3	at +4	at -1	at -2	at -3	at -4	at -5
A fixed	0.742	1	0.937	0.945	1.12	0.903	0.8	1.28	1.23
D fixed	0.22	0.453	0.406	0.728	0.37	0.24	0.239	0.284	0.221
E fixed	0.385	0.465	0.433	0.79	0.369	0.24	0.449	0.359	0.272
F fixed	1.36	0.807	0.936	0.895	0.555	0.439	0.453	0.721	0.949
G fixed	0.506	0.739	1.58	1.08	1.04	0.958	1.53	1.54	1.05
H fixed	1.06	1.71	1.32	1.22	1.24	0.874	1.07	1.02	0.898
I fixed	1.35	0.818	0.664	0.756	0.417	0.368	0.365	0.716	1.11
K fixed	1.02	0.875	1.89	1.62	3.14	2.06	3.1	1.75	1.4
L fixed	1.17	0.781	0.923	0.745	0.741	0.421	0.439	0.909	1.47
M fixed	1.73	0.915	0.942	0.849	0.887	0.427	0.617	0.898	0.976
N fixed	0.667	0.797	0.76	0.94	0.96	0.956	0.847	0.911	0.648
P fixed	0.24	0.44	0.931	1.21	0.284	0.571	1.48	1.58	1.49
Q fixed	1.59	0.904	1.1	1.13	1.2	0.835	0.957	0.884	0.767
R fixed	1.19	1.29	1.34	1.05	2.77	6.1	3.21	1.79	1.23
V fixed	1.19	0.981	0.703	0.861	0.566	0.5	0.401	0.749	1.47
W fixed	1.17	1.39	0.974	1.16	0.531	0.491	0.475	0.713	0.876
Y fixed	1.41	2.63	1.15	1.03	0.818	0.615	0.574	0.899	0.942
pThr fixed	0.649	0.492	0.516	0.736	0.203	0.304	0.47	0.562	0.572
pTyr fixed	0.783	0.714	0.604	0.782	0.285	0.356	0.568	0.647	0.642
